The source of these data is patent US20040185525A1, “Process for producing peptide” (priority 2001, published 2004).

The target in the assay is T1, GPR8 (Homo sapiens, UniProt P48146).
T1 construct: expressed in transfected cells; host or cells: CHO cells (membrane fraction)
Nature of the assay: GTPγS binding activity using a cell membrane fraction of CHO cells expressing GPR8. Format: biochemical. As to conditions: fraction containing cell membrane of CHO cells expressing GPR8; compared with synthetic hGPR8L; process of Example 6 in WO 01/98494. The source says: FIG. 4 is a graph showing the GTPγS binding activity of hGPR8L (SEQ ID NO: 44) of Example 1 to 3 toward CHO cells expressing GPR8. The horizontal axis indicates the concentration of hGPR8L while the vertical axis indicates the GTPyS binding activity. The solid points (-•-) indicate the results obtained for a synthetic hGPR8L (SEQ ID NO: 44) while the open points (-∘-) indicate the results obtained for hGPR8L (SEQ ID NO: 44) produced by the method of the present invention (tandem repeat technique).
Using a fraction containing cell membrane of CHO cells expressing GPR8, the GTPγS binding activity of the hGPR8L obtained above was determined by the same process as described in Example 6 in WO 01/98494.

T1 sequence (P48146 whole entry): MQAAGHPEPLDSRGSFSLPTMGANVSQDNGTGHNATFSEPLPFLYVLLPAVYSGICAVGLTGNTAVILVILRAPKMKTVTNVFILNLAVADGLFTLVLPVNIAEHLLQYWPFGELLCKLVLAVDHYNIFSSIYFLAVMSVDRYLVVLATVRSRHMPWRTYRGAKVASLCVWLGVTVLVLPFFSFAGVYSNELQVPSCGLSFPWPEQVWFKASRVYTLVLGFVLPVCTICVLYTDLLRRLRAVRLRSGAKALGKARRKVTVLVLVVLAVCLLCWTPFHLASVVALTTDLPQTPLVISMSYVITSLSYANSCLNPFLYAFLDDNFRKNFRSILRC

Turning to “hGPR8L: 23-residue ligand polypeptide for human GPR8 (SEQ ID NO: 44), produced by the tandem repeat technique in E. coli (WYKHVASPRYHTVGRAAGLLMGL; Human)”, the GTPγS binding activity entry is listed as “equivalent to that of the artificially synthesized protein”.
